From article PMC4349606, “Solution structure and biophysical characterization of the multifaceted signalling effector protein growth arrest specific-1” (BMC Biochemistry, 2015)

Columns and labels:
RET (Homo sapiens) = RET (Homo sapiens) (UniProt P07949); settings: cited from earlier work
[1] = target: T1, ectodomain of RET protein (ecRET; R&D Systems, catalog no. 1168-CR-050/CF) (UniProt P07949 29-635); experiment: SPR; Biacore; ecRET amine-coupled to a CM5 chip at 4000 RU; GAS1 series 2-32 uM injected at 20 ul/min for 2 min; 10 mM Hepes pH 7.4, 150 mM NaCl, 1 mM CaCl2, 0.01% Triton X-100; Kd from equilibrium responses (Req), two independent experiments; settings: both partners purified
T1 construct: Rearranged during transformation (RET) receptor tyrosine kinase, ectodomain; also called RET receptor; extracellular part of RET; source: bought: R&D Systems (catalog no. 1168-CR-050/CF)
T1 sequence (P07949 29-635): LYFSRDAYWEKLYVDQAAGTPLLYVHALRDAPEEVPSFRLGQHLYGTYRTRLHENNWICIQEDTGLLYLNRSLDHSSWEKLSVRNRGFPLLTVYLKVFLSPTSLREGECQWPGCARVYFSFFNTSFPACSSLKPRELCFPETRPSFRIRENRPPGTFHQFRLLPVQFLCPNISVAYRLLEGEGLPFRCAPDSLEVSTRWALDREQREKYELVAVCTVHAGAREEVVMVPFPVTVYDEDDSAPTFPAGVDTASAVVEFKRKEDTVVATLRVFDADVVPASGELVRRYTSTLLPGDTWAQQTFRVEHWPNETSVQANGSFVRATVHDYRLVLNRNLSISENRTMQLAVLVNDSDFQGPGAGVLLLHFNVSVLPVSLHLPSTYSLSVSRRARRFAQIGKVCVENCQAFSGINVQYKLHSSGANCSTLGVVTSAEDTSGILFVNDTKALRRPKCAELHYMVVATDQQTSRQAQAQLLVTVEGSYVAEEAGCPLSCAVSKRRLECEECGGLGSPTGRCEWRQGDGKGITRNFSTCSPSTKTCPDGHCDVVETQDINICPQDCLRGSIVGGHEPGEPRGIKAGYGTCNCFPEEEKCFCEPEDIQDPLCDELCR

Sequence of RET (Homo sapiens) (P07949 29-635): as above

GFRα1-GDNF (from UniProt P56159)
Kd (RET (Homo sapiens)): 0.0002 µM

B1: human growth arrest specific-1 (GAS1), soluble form without the GPI-anchor, amino acids 39-317 (domain or fragment, UniProt P54826 39-317, looked up)
chain: GLAHGRRLICWQALLQCQGEPECSYAYNQYAEACAPVLAQHGGGDAPGAAAAAFPASAASFSSRWRCPSHCISALIQLNHTRRGPALEDCDCAQDENCKSTKRAIEPCLPRTSGGGAGGPGAGGVMGCTEARRRCDRDSRCNLALSRYLTYCGKVFNGLRCTDECRTVIEDMLAMPKAALLNDCVCDGLERPICESVKENMARLCFGAELGNGPGSSGSDGGLDDYYDEDYDDEQRTGGAGGEQPLDDDDGVPHPPRPGSGAAASGGRGDLPYGPGRRS
modifications: glycosylated: approximately one N-glycan added in the insect cells (N-glycosylation site predicted at Asn117)
notes: secreted with the honey bee mellitin signal of the vector pK509.3; after thrombin cleavage Gly-Ser of the site probably remains at the N-terminus (surmise); Theoretical mass without glycan printed as 29.0 kDa; also called recombinant human GAS1; not shown: FLAG, N-terminal, cleaved; His6, N-terminal, cleaved
Kd [1]: 12.2 µM
